The values that follow are results of earlier work, collected in PMC4489983.

For one data set, the target named is NIPP1 (Homo sapiens) (UniProt Q12972).
Data set [1] has as its target spinophilin (Homo sapiens) (UniProt Q96SB3).
In another data set the target is PNUTS (Homo sapiens) (UniProt Q96QC0).
Chain of PNUTS (Homo sapiens) (Q96QC0 whole entry): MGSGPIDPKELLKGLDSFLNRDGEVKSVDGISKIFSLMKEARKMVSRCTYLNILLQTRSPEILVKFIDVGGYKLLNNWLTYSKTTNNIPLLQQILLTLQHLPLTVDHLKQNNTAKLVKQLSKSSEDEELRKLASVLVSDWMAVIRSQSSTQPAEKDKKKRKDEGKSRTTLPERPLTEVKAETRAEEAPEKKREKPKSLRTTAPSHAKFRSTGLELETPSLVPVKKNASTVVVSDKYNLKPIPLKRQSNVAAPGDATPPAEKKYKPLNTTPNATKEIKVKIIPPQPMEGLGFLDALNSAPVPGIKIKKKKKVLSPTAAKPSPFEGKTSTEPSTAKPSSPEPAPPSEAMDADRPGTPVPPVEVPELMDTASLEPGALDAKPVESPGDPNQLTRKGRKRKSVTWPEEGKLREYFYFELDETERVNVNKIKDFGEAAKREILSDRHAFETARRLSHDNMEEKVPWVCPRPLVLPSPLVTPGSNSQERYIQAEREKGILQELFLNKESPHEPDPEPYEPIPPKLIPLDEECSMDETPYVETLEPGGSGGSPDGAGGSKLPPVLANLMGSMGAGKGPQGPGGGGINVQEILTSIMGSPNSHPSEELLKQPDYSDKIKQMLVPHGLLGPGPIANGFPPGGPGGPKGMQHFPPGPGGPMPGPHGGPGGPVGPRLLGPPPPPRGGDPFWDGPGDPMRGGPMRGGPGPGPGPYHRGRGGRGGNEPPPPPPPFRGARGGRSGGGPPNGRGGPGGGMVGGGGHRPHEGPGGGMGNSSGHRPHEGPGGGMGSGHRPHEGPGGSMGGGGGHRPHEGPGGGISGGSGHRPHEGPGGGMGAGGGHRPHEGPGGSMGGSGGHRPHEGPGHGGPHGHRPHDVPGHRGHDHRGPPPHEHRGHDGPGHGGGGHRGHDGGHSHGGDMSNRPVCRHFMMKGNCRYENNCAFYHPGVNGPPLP

Chain of PP1α (P62136 2-330): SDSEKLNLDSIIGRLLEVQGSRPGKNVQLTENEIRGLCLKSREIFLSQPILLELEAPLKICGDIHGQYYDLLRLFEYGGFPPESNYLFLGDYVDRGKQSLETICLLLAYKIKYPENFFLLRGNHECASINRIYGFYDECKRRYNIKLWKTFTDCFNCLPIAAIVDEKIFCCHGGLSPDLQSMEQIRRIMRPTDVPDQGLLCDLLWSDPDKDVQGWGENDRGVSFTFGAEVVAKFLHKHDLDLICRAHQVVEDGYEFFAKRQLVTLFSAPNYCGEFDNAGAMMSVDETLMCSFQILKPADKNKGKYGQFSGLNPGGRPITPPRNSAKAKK
Chain of spinophilin (Homo sapiens) (Q96SB3 whole entry): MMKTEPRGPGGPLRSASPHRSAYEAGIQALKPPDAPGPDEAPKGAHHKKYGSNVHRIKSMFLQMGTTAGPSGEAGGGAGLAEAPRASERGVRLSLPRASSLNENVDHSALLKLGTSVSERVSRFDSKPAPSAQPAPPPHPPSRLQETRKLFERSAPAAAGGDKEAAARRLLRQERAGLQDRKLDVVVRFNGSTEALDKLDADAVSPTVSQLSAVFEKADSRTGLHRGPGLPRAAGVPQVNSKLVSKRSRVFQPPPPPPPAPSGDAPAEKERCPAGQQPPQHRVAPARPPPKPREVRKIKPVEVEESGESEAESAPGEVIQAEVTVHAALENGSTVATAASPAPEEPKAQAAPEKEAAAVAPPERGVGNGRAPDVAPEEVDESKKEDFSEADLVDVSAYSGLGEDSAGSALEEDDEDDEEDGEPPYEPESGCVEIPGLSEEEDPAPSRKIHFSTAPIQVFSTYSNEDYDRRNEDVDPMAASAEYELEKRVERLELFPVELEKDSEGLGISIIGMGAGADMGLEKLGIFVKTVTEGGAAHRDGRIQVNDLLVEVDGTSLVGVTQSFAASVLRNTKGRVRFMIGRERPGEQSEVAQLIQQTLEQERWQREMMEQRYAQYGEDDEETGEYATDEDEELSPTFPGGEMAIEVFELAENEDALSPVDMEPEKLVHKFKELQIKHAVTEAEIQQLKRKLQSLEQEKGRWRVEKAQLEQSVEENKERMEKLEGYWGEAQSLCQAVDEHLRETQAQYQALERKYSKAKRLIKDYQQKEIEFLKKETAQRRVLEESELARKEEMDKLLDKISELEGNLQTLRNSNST
Chain of NIPP1 (Homo sapiens) (Q12972 whole entry): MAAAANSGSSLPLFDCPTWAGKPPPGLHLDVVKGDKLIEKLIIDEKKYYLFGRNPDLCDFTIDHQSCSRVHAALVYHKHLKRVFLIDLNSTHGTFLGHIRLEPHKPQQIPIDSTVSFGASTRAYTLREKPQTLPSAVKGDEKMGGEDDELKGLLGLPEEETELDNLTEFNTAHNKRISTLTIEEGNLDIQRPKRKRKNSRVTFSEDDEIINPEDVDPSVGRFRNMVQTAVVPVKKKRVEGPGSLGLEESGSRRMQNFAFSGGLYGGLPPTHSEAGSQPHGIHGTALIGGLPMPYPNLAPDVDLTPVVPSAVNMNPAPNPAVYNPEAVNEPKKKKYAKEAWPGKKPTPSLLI

PP1α (from UniProt P62136): the values for the Kd (in the data set with NIPP1 (Homo sapiens); in data set [1]; in the data set with PNUTS (Homo sapiens)) were 73 nM, 9.3 nM and 8.7 nM, respectively.
